Test results published in US20080233118A1 (Novartis, published 2008).

Target: T1, human M-CSF (macrophage colony stimulating factor) (human, UniProt P09603 33-190, limits assumed)
T1 sequence: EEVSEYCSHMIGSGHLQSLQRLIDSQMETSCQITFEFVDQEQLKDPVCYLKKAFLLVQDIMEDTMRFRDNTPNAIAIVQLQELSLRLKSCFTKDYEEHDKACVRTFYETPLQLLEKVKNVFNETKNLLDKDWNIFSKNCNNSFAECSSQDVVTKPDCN
Assay: cell-based or functional assay

EC50 of M-CSF neutralization: 2 ng/mL
B1: M-CSF-specific murine antibody RX1 (antibody, V domains shown)
VH: DVQLQESGPGLVKPSQSLSLTCTVTDYSITSDYAWNWIRQFPGNKLEWMGYISYSGSTSYNPSLKSRISITRDTSKNQFFLQLNSVTTEDTATYYCASFDYAHAMDYWGQGTSVTVSS
VL: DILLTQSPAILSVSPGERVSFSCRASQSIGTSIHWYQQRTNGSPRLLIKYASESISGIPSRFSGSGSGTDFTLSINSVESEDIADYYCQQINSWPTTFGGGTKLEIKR
